Source: the supplement of paper PMC9112550, “Optimization of the antimicrobial peptide Bac7 by deep mutational scanning” (BMC Biology, 2022)

Test system: Escherichia coli TOP10
Assay: shrunken log2 fold change of peptide-encoding DNA abundance (4.5 h post-induction vs induction); higher = less antimicrobial activity (less host growth inhibition)
Settings: time post-induction: 4.5 h; library: site-saturation at positions 5, 18, 19, 20
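Note: peptides expressed intracellularly from a pBAD plasmid library in pooled LB shake-flask culture, induced with 0.3% L-arabinose, DNA abundance read by NGS, three biological replicates, DESeq2 with apeglm shrinkage.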

Row | Sequence | shrunken log2 fold change
1 | RRIRRRPPRLPRPRPRPSGVPRP | -0.181
2 | RRIRRRPPRLPRPRPRPSHKPRP | -0.0351
3 | RRIRRRPPRLPRPRPRPSIFPRP | -0.192
4 | RRIRRRPPRLPRPRPRPSIMPRP | -0.213
5 | RRIRRRPPRLPRPRPRPSKTPRP | -0.0865
6 | RRIRRRPPRLPRPRPRPSLSPRP | 2.85
7 | RRIRRRPPRLPRPRPRPSMNPRP | -0.467
8 | RRIRRRPPRLPRPRPRPSNEPRP | -0.105
9 | RRIRRRPPRLPRPRPRPSNFPRP | -0.177
10 | RRIRRRPPRLPRPRPRPSPCPRP | 0.155
11 | RRIRRRPPRLPRPRPRPSPQPRP | 1.96
12 | RRIRRRPPRLPRPRPRPSPSPRP | 0.386
13 | RRIRRRPPRLPRPRPRPSRGPRP | 0.432
14 | RRIRRRPPRLPRPRPRPSRPPRP | 0.464
15 | RRIRRRPPRLPRPRPRPSRVPRP | 0.553
16 | RRIRRRPPRLPRPRPRPSTWPRP | 0.00308
17 | RRIRRRPPRLPRPRPRPSVPPRP | 0.063
18 | RRIRRRPPRLPRPRPRPSWDPRP | -0.102
19 | RRIRRRPPRLPRPRPRPSWLPRP | 0.202
20 | RRIRRRPPRLPRPRPRPSWRPRP | 0.355
21 | RRIRRRPPRLPRPRPRPSYAPRP | 0.0616
22 | RRIRRRPPRLPRPRPRPSYRPRP | -0.142
23 | RRIRRRPPRLPRPRPRPSYTPRP | -0.227
24 | RRIRRRPPRLPRPRPRPTAPPRP | 0.583
25 | RRIRRRPPRLPRPRPRPTAYPRP | 0.676

Row | Sequence | shrunken log2 fold change
26 | RRIRRRPPRLPRPRPRPTCDPRP | 0.502
27 | RRIRRRPPRLPRPRPRPTFEPRP | 0.358
28 | RRIRRRPPRLPRPRPRPTFMPRP | 0.284
29 | RRIRRRPPRLPRPRPRPTKHPRP | 0.124
30 | RRIRRRPPRLPRPRPRPTKWPRP | 0.0371
31 | RRIRRRPPRLPRPRPRPTMMPRP | 0.167
32 | RRIRRRPPRLPRPRPRPTMTPRP | 0.487
33 | RRIRRRPPRLPRPRPRPTPRPRP | 2.37
34 | RRIRRRPPRLPRPRPRPTQSPRP | 0.804
35 | RRIRRRPPRLPRPRPRPTQYPRP | 0.571
36 | RRIRRRPPRLPRPRPRPTTEPRP | 0.0681
37 | RRIRRRPPRLPRPRPRPTTHPRP | 0.306
38 | RRIRRRPPRLPRPRPRPTVAPRP | 0.699
39 | RRIRRRPPRLPRPRPRPTWIPRP | 0.53
40 | RRIRRRPPRLPRPRPRPTYQPRP | 0.112
41 | RRIRRRPPRLPRPRPRPVAYPRP | 0.263
42 | RRIRRRPPRLPRPRPRPVCDPRP | 0.621
43 | RRIRRRPPRLPRPRPRPVCGPRP | 0.75
44 | RRIRRRPPRLPRPRPRPVDYPRP | -0.0118
45 | RRIRRRPPRLPRPRPRPVEHPRP | 0.0989
46 | RRIRRRPPRLPRPRPRPVFMPRP | 0.251
47 | RRIRRRPPRLPRPRPRPVFTPRP | 0.188
48 | RRIRRRPPRLPRPRPRPVGKPRP | -0.105
49 | RRIRRRPPRLPRPRPRPVKCPRP | 0.23
50 | RRIRRRPPRLPRPRPRPVKWPRP | 0.111

Row | Sequence | shrunken log2 fold change
51 | RRIRRRPPRLPRPRPRPVLEPRP | 0.599
52 | RRIRRRPPRLPRPRPRPVLLPRP | 0.103
53 | RRIRRRPPRLPRPRPRPVLNPRP | 0.0825
54 | RRIRRRPPRLPRPRPRPVLSPRP | 0.0336
55 | RRIRRRPPRLPRPRPRPVLYPRP | -0.142
56 | RRIRRRPPRLPRPRPRPVMDPRP | -0.0641
57 | RRIRRRPPRLPRPRPRPVMIPRP | 0.224
58 | RRIRRRPPRLPRPRPRPVPMPRP | 0.452
59 | RRIRRRPPRLPRPRPRPVPYPRP | -0.195
60 | RRIRRRPPRLPRPRPRPVRMPRP | 0.497
61 | RRIRRRPPRLPRPRPRPVTDPRP | 0.0723
62 | RRIRRRPPRLPRPRPRPVTFPRP | 0.00522
63 | RRIRRRPPRLPRPRPRPVVEPRP | 0.339
64 | RRIRRRPPRLPRPRPRPVVHPRP | -0.157
65 | RRIRRRPPRLPRPRPRPVVKPRP | -0.0155
66 | RRIRRRPPRLPRPRPRPVWWPRP | 0.703
67 | RRIRRRPPRLPRPRPRPWAHPRP | 0.0718
68 | RRIRRRPPRLPRPRPRPWCCPRP | -0.0571
69 | RRIRRRPPRLPRPRPRPWDNPRP | 0.0234
70 | RRIRRRPPRLPRPRPRPWEDPRP | 0.0594
71 | RRIRRRPPRLPRPRPRPWEKPRP | 0.0936
72 | RRIRRRPPRLPRPRPRPWEVPRP | 0.125
73 | RRIRRRPPRLPRPRPRPWFEPRP | 0.0607
74 | RRIRRRPPRLPRPRPRPWFVPRP | 0.214
75 | RRIRRRPPRLPRPRPRPWFWPRP | 1.76
